Results on 27 molecules are retold here after paper PMC10786891, “Massively parallel profiling of RNA-targeting CRISPR-Cas13d”.

The chains are these.
B1: target 1 G5U,U8C (mixed)
RNA 1: CACCCGUGCAAAAAUGCAGGGGUCUAAAACUGAGCGGAUAACCUCUCUAUGG
RNA 2: GGGAAUGGAUCCACAUCUACGAAUUCGUACCAUAGAGAGGUUACCCUCUCACCGAGAUCGGAAGAGCACACGU
B2: target 1 insU 3' of 12,insA 3' of 5 (mixed)
RNA 1: CACCCGUGCAAAAAUGCAGGGGUCUAAAACUGAGCGGAUAACCUCUCUAUGG
RNA 2: GGGAAUGGAUCCACAUCUACGAAUUCGUACCAUAGAGAGGUUUAUCCGACUCACCGAGAUCGGAAGAGCACACGU
B3: target 1 C2A,U19A (mixed)
RNA 1: CACCCGUGCAAAAAUGCAGGGGUCUAAAACUGAGCGGAUAACCUCUCUAUGG
RNA 2: GGGAAUGGAUCCACAUCUACGAAUUCGUACCAAAGAGAGGUUAUCCGCUAACCGAGAUCGGAAGAGCACACGU
B4: target 1 insC 3' of 8,insU 3' of 5 (mixed)
RNA 1: CACCCGUGCAAAAAUGCAGGGGUCUAAAACUGAGCGGAUAACCUCUCUAUGG
RNA 2: GGGAAUGGAUCCACAUCUACGAAUUCGUACCAUAGAGAGGUUAUCCCGUCUCACCGAGAUCGGAAGAGCACACGU
B5: target 1 del15,del17 (mixed)
RNA 1: CACCCGUGCAAAAAUGCAGGGGUCUAAAACUGAGCGGAUAACCUCUCUAUGG
RNA 2: GGGAAUGGAUCCACAUCUACGAAUUCGUACCAUAAAGGUUAUCCGCUCACCGAGAUCGGAAGAGCACACGU
B6: target 1 insA 3' of 17,insC 3' of 15 (mixed)
RNA 1: CACCCGUGCAAAAAUGCAGGGGUCUAAAACUGAGCGGAUAACCUCUCUAUGG
RNA 2: GGGAAUGGAUCCACAUCUACGAAUUCGUACCAUAGAAGCAGGUUAUCCGCUCACCGAGAUCGGAAGAGCACACGU
B7: target 1 U11C,A16G (mixed)
RNA 1: CACCCGUGCAAAAAUGCAGGGGUCUAAAACUGAGCGGAUAACCUCUCUAUGG
RNA 2: GGGAAUGGAUCCACAUCUACGAAUUCGUACCAUAGGGAGGCUAUCCGCUCACCGAGAUCGGAAGAGCACACGU
B8: target 1 U10C,C22A (mixed)
RNA 1: CACCCGUGCAAAAAUGCAGGGGUCUAAAACUGAGCGGAUAACCUCUCUAUGG
RNA 2: GGGAAUGGAUCCACAUCUACGAAUUCGUAACAUAGAGAGGUCAUCCGCUCACCGAGAUCGGAAGAGCACACGU
B9: target 1 U3G,G13C (mixed)
RNA 1: CACCCGUGCAAAAAUGCAGGGGUCUAAAACUGAGCGGAUAACCUCUCUAUGG
RNA 2: GGGAAUGGAUCCACAUCUACGAAUUCGUACCAUAGAGACGUUAUCCGCGCACCGAGAUCGGAAGAGCACACGU
B10: target 1 insG 3' of 21,insA 3' of 15 (mixed)
RNA 1: CACCCGUGCAAAAAUGCAGGGGUCUAAAACUGAGCGGAUAACCUCUCUAUGG
RNA 2: GGGAAUGGAUCCACAUCUACGAAUUCGUACCGAUAGAGAAGGUUAUCCGCUCACCGAGAUCGGAAGAGCACACGU
B11: target 1 insC 3' of 12,insA 3' of 6 (mixed)
RNA 1: CACCCGUGCAAAAAUGCAGGGGUCUAAAACUGAGCGGAUAACCUCUCUAUGG
RNA 2: GGGAAUGGAUCCACAUCUACGAAUUCGUACCAUAGAGAGGCUUAUCCAGCUCACCGAGAUCGGAAGAGCACACGU
B12: target 1 G5A,U10G (mixed)
RNA 1: CACCCGUGCAAAAAUGCAGGGGUCUAAAACUGAGCGGAUAACCUCUCUAUGG
RNA 2: GGGAAUGGAUCCACAUCUACGAAUUCGUACCAUAGAGAGGUGAUCCACUCACCGAGAUCGGAAGAGCACACGU
B13: target 1 insG 3' of 16,insC 3' of 11 (mixed)
RNA 1: CACCCGUGCAAAAAUGCAGGGGUCUAAAACUGAGCGGAUAACCUCUCUAUGG
RNA 2: GGGAAUGGAUCCACAUCUACGAAUUCGUACCAUAGAGGAGGUCUAUCCGCUCACCGAGAUCGGAAGAGCACACGU
B14: target 1 insG 3' of 16,insG 3' of 1 (mixed)
RNA 1: CACCCGUGCAAAAAUGCAGGGGUCUAAAACUGAGCGGAUAACCUCUCUAUGG
RNA 2: GGGAAUGGAUCCACAUCUACGAAUUCGUACCAUAGAGGAGGUUAUCCGCUCAGCCGAGAUCGGAAGAGCACACGU
B15: target 1 insC 3' of 10,insG 3' of 6 (mixed)
RNA 1: CACCCGUGCAAAAAUGCAGGGGUCUAAAACUGAGCGGAUAACCUCUCUAUGG
RNA 2: GGGAAUGGAUCCACAUCUACGAAUUCGUACCAUAGAGAGGUUCAUCCGGCUCACCGAGAUCGGAAGAGCACACGU
B16: target 1 insU 3' of 5,insC 3' of 3 (mixed)
RNA 1: CACCCGUGCAAAAAUGCAGGGGUCUAAAACUGAGCGGAUAACCUCUCUAUGG
RNA 2: GGGAAUGGAUCCACAUCUACGAAUUCGUACCAUAGAGAGGUUAUCCGUCUCCACCGAGAUCGGAAGAGCACACGU
B17: target 1 G15U,G17C (mixed)
RNA 1: CACCCGUGCAAAAAUGCAGGGGUCUAAAACUGAGCGGAUAACCUCUCUAUGG
RNA 2: GGGAAUGGAUCCACAUCUACGAAUUCGUACCAUACAUAGGUUAUCCGCUCACCGAGAUCGGAAGAGCACACGU
B18: target 1 insU 3' of 15,insC 3' of 12 (mixed)
RNA 1: CACCCGUGCAAAAAUGCAGGGGUCUAAAACUGAGCGGAUAACCUCUCUAUGG
RNA 2: GGGAAUGGAUCCACAUCUACGAAUUCGUACCAUAGAGUAGGCUUAUCCGCUCACCGAGAUCGGAAGAGCACACGU
B19: target 1 insU 3' of 14,insC 3' of 3 (mixed)
RNA 1: CACCCGUGCAAAAAUGCAGGGGUCUAAAACUGAGCGGAUAACCUCUCUAUGG
RNA 2: GGGAAUGGAUCCACAUCUACGAAUUCGUACCAUAGAGAUGGUUAUCCGCUCCACCGAGAUCGGAAGAGCACACGU
B20: target 1 A14G,C21U (mixed)
RNA 1: CACCCGUGCAAAAAUGCAGGGGUCUAAAACUGAGCGGAUAACCUCUCUAUGG
RNA 2: GGGAAUGGAUCCACAUCUACGAAUUCGUACUAUAGAGGGGUUAUCCGCUCACCGAGAUCGGAAGAGCACACGU
B21: target 1 insG 3' of 16,insA 3' of 2 (mixed)
RNA 1: CACCCGUGCAAAAAUGCAGGGGUCUAAAACUGAGCGGAUAACCUCUCUAUGG
RNA 2: GGGAAUGGAUCCACAUCUACGAAUUCGUACCAUAGAGGAGGUUAUCCGCUCAACCGAGAUCGGAAGAGCACACGU
B22: target 1 insG 3' of 16,insU 3' of 6 (mixed)
RNA 1: CACCCGUGCAAAAAUGCAGGGGUCUAAAACUGAGCGGAUAACCUCUCUAUGG
RNA 2: GGGAAUGGAUCCACAUCUACGAAUUCGUACCAUAGAGGAGGUUAUCCUGCUCACCGAGAUCGGAAGAGCACACGU
B23: target 1 insG 3' of 21,insA 3' of 7 (mixed)
RNA 1: CACCCGUGCAAAAAUGCAGGGGUCUAAAACUGAGCGGAUAACCUCUCUAUGG
RNA 2: GGGAAUGGAUCCACAUCUACGAAUUCGUACCGAUAGAGAGGUUAUCACGCUCACCGAGAUCGGAAGAGCACACGU
B24: target 1 insC 3' of 17,insC 3' of 9 (mixed)
RNA 1: CACCCGUGCAAAAAUGCAGGGGUCUAAAACUGAGCGGAUAACCUCUCUAUGG
RNA 2: GGGAAUGGAUCCACAUCUACGAAUUCGUACCAUAGCAGAGGUUACUCCGCUCACCGAGAUCGGAAGAGCACACGU
B25: target 1 insU 3' of 22,insU 3' of 1 (mixed)
RNA 1: CACCCGUGCAAAAAUGCAGGGGUCUAAAACUGAGCGGAUAACCUCUCUAUGG
RNA 2: GGGAAUGGAUCCACAUCUACGAAUUCGUACUCAUAGAGAGGUUAUCCGCUCAUCCGAGAUCGGAAGAGCACACGU
B26: target 1 U11C,G12U (mixed)
RNA 1: CACCCGUGCAAAAAUGCAGGGGUCUAAAACUGAGCGGAUAACCUCUCUAUGG
RNA 2: GGGAAUGGAUCCACAUCUACGAAUUCGUACCAUAGAGAGUCUAUCCGCUCACCGAGAUCGGAAGAGCACACGU
B27: target 1 insG 3' of 16,insC 3' of 1 (mixed)
RNA 1: CACCCGUGCAAAAAUGCAGGGGUCUAAAACUGAGCGGAUAACCUCUCUAUGG
RNA 2: GGGAAUGGAUCCACAUCUACGAAUUCGUACCAUAGAGGAGGUUAUCCGCUCACCCGAGAUCGGAAGAGCACACGU

The Kd is the constant that tells how readily two partners part at equilibrium.

This series concerns the target T1, EsCas13d, nuclease-dead (Eubacterium siraeum, UniProt B0MS50, R295A;H300A;R849A;H854A).
T1 sequence: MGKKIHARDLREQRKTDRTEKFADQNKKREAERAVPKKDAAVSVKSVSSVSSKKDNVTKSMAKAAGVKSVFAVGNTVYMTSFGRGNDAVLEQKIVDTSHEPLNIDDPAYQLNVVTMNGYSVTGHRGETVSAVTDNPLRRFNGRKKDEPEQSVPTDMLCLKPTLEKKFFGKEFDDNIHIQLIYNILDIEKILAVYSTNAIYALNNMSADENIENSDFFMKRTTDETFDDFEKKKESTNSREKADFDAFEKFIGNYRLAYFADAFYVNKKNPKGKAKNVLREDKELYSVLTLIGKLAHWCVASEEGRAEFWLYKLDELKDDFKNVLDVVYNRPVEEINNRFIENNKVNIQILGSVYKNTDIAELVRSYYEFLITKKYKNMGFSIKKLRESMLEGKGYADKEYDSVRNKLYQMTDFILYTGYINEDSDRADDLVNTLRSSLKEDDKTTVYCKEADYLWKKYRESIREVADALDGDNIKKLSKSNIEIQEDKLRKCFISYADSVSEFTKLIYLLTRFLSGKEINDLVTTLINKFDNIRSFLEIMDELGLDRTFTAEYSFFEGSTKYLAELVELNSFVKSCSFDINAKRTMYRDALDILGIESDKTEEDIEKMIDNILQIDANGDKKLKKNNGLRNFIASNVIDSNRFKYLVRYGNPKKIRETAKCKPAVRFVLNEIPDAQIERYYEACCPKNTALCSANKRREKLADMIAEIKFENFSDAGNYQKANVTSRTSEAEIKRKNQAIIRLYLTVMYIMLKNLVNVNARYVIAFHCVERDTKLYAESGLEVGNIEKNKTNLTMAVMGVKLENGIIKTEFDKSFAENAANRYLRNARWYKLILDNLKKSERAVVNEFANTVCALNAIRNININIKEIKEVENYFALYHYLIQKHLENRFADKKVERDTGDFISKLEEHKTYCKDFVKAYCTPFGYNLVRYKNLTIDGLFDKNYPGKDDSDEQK
The series can be described thus: crRNA (strand 1, pre-loaded); Mg2+; 40 mM Tris-HCl pH 7.5, 150 mM NaCl, 6 mM MgCl2, 1 mM DTT, 0.1% Tween-20, 0.2 mg/ml BSA; 25 C; 10 min per concentration, then washed. Particulars: tags: His6-TwinStrep-SUMO cleaved; N-terminal SNAP kept (SNAP-Surface 488); label: 3' end held by stalled T7 RNA polymerase.
Regarding B1, binding was put at a Kd of 57 ± 12 nM.

In turn, B2 registered a Kd of 4.32 ± 0.35 nM.

Take B3: binding was characterised by a dissociation constant (Kd) of 32.7 ± 3.3 nM.

Molecule B4 yielded a Kd of 16.1 ± 1.2 nM.

In turn, B5 yielded a Kd of 90 ± 40 nM.

Molecule B6 gave a Kd of 12.5 ± 1.4 nM. This Kd lies about 7.2-fold lower than the previous one.

On to B7, for which binding was characterised by a dissociation constant (Kd) of 80 ± 8 nM.

In turn, B8 yielded a dissociation constant (Kd) of 35.5 ± 2 nM.

In turn, B9 showed a Kd of 30.3 ± 2.3 nM.

As to B10, the Kd was 37 ± 6 nM.

With B11, the Kd turned out to be 11.1 ± 0.5 nM.

With B12, binding was put at a Kd of 35 ± 4 nM.

In turn, B13 registered a Kd of 46 ± 11 nM.

For B14, binding was characterised by a dissociation constant (Kd) of 13 ± 0.8 nM.

Take B15: binding was characterised by a dissociation constant (Kd) of 18.8 ± 2.1 nM.

For B16, the Kd turned out to be 38 ± 6 nM.

On to B17, for which binding was characterised by a dissociation constant (Kd) of 34.6 ± 3 nM.

As for B18, the Kd is 35 ± 8 nM.

As for B19, binding was put at a Kd of 80 ± 40 nM.

B20 displayed a Kd of 6.9 ± 0.4 nM.

Molecule B21 came in with a Kd of 14.3 ± 0.9 nM.

With B22, binding was characterised by a dissociation constant (Kd) of 21 ± 1 nM.

B23 showed a dissociation constant (Kd) of 46 ± 5 nM.

B24 had a Kd of 58 ± 13 nM.

Molecule B25 had a Kd of 37 ± 6 nM.

As to B26, the Kd was determined as 10.2 ± 0.5 nM. Compared with the last molecule, the Kd is about 3.6-fold lower.

For the molecule B27, binding was characterised by a dissociation constant (Kd) of 11.9 ± 1.1 nM.
